Assay results from the supplement of paper PMC10724198.
± gives the standard deviation of the averaged measurements.

System: Saccharomyces cerevisiae
Experiment: protein stability index of tFT-peptide fusion (C-terminal peptide) (PSI (0-1 scale)); higher = more stable (slower turnover)
Conditions: genetic background: wild type; temperature: 30 C
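Also: PSI is a weighted mean of sequencing reads over stability bins, variants kept only with over 10 reads, mCherry proximal and sfGFP distal, peptide attached via GGGS linker.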

| Sequence | protein stability index |
| --- | --- |
| WVNWRWRAVVPG | 0.6188 ± 0.0025 |
| WVSSRSSVVARG | 0.653 ± 0.043 |
| WVTQHAMEVGRI | 0.712 ± 0.084 |
| WVVGGVRGVWGA | 0.729 ± 0.011 |
| WWAERCLGGGRG | 0.744 ± 0.018 |
| WWAGGCGGERGG | 0.686 ± 0.018 |
| WWGAKLDGKVSE | 0.813 ± 0.0089 |
| WWGCVGRVGVEG | 0.726 ± 0.1 |
| WWGGGVRGGMGG | 0.7578 ± 0.002 |
| WWGRWGASVGRG | 0.686 ± 0.033 |
| WWRGSVWHREVA | 0.701 ± 0.0088 |
| WYGPKLVGGSIV | 0.722 ± 0.12 |
| WYITVMSHFNET | 0.753 ± 0.009 |
| WYWGGWMRGCGW | 0.75 ± 0.048 |
| YAGPCRRHSGGC | 0.679 ± 0.082 |
| YALLLPRSVFQF | 0.517 ± 0.038 |
| YASDGNSRLRAN | 0.691 ± 0.02 |
| YASKQNPKPPSP | 0.682 ± 0.039 |
| YASLSGSRYRPG | 0.62 ± 0.051 |
| YCGGWCGGWEIG | 0.709 ± 0.0075 |
| YCGGWWGGWEIG | 0.719 ± 0.0036 |
| YCHTSISPNSHL | 0.787 ± 0.096 |
| YCLLGHIYKPLS | 0.679 ± 0.011 |
| YCRVRYKKSVLR | 0.694 ± 0.015 |
| YCTVDECWGRWH | 0.709 ± 0.08 |

| Sequence | protein stability index |
| --- | --- |
| YCWGYVVARPSV | 0.695 ± 0.017 |
| YEMTGHVVTHEI | 0.69 ± 0.075 |
| YFGSHLILSRAT | 0.665 ± 0.11 |
| YFNNVFQVAGGF | 0.639 ± 0.025 |
| YGAGLRIGQFRC | 0.747 ± 0.1 |
| YGCPSSSSVLDG | 0.812 ± 0.11 |
| YGGRQRCRGRVE | 0.825 ± 0.16 |
| YGKENGNRNTGR | 0.621 ± 0.014 |
| YGRANATHLGRR | 0.661 ± 0.005 |
| YHARPQALPSRP | 0.658 ± 0.055 |
| YHMNSSLLCLLW | 0.631 ± 0.032 |
| YIGGMRSHYASP | 0.734 ± 0.12 |
| YIRSKPASDQFA | 0.7093 ± 0.00062 |
| YIVPAGGGLVSG | 0.642 ± 0.096 |
| YKMTFVRGQGYE | 0.69 ± 0.041 |
| YKNDNDKCIQMR | 0.678 ± 0.011 |
| YKPLKNKDEEMD | 0.6127 ± 0.00088 |
| YLAYHVAAPGPV | 0.686 ± 0.015 |
| YLCEATFLLTWL | 0.618 ± 0.024 |
| YLGCSLAMAFSL | 0.6278 ± 0.0054 |
| YLLLAFQRPTPG | 0.694 ± 0.019 |
| YLLPSTPPPRIP | 0.6912 ± 0.0048 |
| YLQLALFHSIPH | 0.738 ± 0.053 |
| YLSLPTSISLSS | 0.693 ± 0.016 |
| YPLPFRHASIPF | 0.606 ± 0.096 |

| Sequence | protein stability index |
| --- | --- |
| YPLPPLFLPLLL | 0.675 ± 0.046 |
| YPPLTNNQINES | 0.69 ± 0.015 |
| YPPPPPLAPPRP | 0.747 ± 0.14 |
| YPPREEPREDLA | 0.656 ± 0.026 |
| YPSTPPPPPHPA | 0.687 ± 0.1 |
| YPTTSWNPARSV | 0.692 ± 0.12 |
| YQSLVSIDLGFS | 0.745 ± 0.034 |
| YRLAPGCSFHPT | 0.666 ± 0.028 |
| YRPPSPPSPLPP | 0.674 ± 0.007 |
| YSCLGFELWGKG | 0.632 ± 0.067 |
| YSLQLSTVCCRL | 0.614 ± 0.019 |
| YSLSDVAVLAST | 0.629 ± 0.045 |
| YSLTFSIHSSCP | 0.697 ± 0.033 |
| YSLYVHPPNLYQ | 0.6604 ± 0.0015 |
| YSRSSFSIPPPF | 0.7239 ± 0.003 |
| YSSLPPAFPNRS | 0.734 ± 0.1 |
| YSVPDFIVVSHL | 0.797 ± 0.12 |
| YSWRAKGVKRLR | 0.659 ± 0.029 |
| YTDVWLPARGSG | 0.689 ± 0.056 |
| YTKIIPIFPEQL | 0.631 ± 0.03 |
| YVCCMEGFLKPL | 0.619 ± 0.043 |
| YVFPYLLRAIPF | 0.601 ± 0.095 |
| YVLITGSTIPDN | 0.694 ± 0.026 |
| YVVCMNKSSFRG | 0.769 ± 0.042 |
| YWVPPDTIKSAI | 0.7362 ± 0.0032 |
